# Experimental data reported in US6750197B1, “Activators of endothelial nitric oxide synthase” (Rensselaer Polytechnic Institute, priority 1996, dated 2004).
# Experiments:
# ENOS = biological target: T1, ENOS (Bos taurus, UniProt P29473); experiment: Effects on calmodulin binding (Example 3), ENOS
# T1 sequence (P29473 2-1205): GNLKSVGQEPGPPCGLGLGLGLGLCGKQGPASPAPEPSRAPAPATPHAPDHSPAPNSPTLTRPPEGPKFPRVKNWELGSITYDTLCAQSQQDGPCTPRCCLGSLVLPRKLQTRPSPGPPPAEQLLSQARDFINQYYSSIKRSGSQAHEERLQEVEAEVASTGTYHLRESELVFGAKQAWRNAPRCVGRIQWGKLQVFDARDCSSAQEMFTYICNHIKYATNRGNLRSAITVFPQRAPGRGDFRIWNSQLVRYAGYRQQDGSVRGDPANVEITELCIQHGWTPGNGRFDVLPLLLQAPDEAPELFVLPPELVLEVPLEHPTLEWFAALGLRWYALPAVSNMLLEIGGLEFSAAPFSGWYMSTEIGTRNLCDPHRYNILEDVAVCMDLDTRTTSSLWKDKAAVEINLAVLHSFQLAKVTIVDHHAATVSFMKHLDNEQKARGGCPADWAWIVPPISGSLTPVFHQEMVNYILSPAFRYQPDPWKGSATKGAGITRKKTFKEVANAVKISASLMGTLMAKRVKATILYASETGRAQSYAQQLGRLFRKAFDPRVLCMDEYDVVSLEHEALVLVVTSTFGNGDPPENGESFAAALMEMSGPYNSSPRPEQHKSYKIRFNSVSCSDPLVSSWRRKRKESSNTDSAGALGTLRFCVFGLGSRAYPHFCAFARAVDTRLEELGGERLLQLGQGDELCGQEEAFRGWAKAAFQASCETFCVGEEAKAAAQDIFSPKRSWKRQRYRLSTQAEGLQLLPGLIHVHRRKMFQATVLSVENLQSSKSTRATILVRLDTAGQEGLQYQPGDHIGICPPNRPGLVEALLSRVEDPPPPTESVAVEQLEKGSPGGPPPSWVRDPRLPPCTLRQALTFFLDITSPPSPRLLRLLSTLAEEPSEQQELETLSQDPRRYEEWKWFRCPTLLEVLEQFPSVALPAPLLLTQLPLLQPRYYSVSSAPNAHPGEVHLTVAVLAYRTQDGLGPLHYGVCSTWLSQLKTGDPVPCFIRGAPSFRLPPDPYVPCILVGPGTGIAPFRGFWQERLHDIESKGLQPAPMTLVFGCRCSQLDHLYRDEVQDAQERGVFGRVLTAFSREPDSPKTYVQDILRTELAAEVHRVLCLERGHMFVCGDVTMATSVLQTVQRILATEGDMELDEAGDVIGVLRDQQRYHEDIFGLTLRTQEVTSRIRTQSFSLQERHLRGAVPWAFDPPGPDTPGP
# Description: (§1) In addition to the inhibition of enzyme activity, it is possible to modulate CAM binding to NOS with synthetic homologs of the control site elements. The relationship between enzyme inhibition and CAM binding in the presence of control site elements can be complex. In other systems, antibodies to inhibitory elements sometimes induce partial CAM independent activation, while preventing CAM dependent activation. It is important to remember that CAM binding is only a means to displace the inhibitor.
# (§2) While a number of the polypeptides could modulate CAM binding, the series containing the RRKRK (SEQ ID NO: 10) motif was the most instructive. […] CAM binding was decreased almost to background levels, with effects seen at the 10 uM level.
# NOS [1] = experiment: Radioligand binding of [3H]-N-nitro-L-arginine to NOS; design: scale not given here; details: peptide 100 μg/ml; ligand 200 pM, 15 minutes at 23° C.; mean ± SEM
# Experimental: (§3) NOS activity measurements were performed using recombinant rat NNOS (purified from overexpressing HEK293 cells), recombinant bovine ENOS (purified from overexpressing E. coli) or native INOS (from immunostimulant-activated rat aortic smooth muscle cells). Activity was determined with 1-20 pmole of NOS using a kinetic 96-well microtiter plate assay based on the kinetics of NADPH consumption (NNOS and ENOS) or Fe^2+-myoglobin oxidation. Radioligand binding was performed after incubation of 1-2 pmole of NOS for 15 minutes at 23° C. with either Bolton-Hunter labelled [125I]-calmodulin (1 nM) or [3H]-N-nitro-L-arginine (200 pM) and the indicated peptides. Values are means ±SEM of triplicate determinations.
# INOS = INOS (Rattus norvegicus, UniProt Q06518); experiment: INOS activity by oxidation of ferrous myoglobin by product NO; type: biochemical; design: unit not given here; details: peptide 0.1 mg/ml; no peptide: 14.9 ± .56
# Experimental: (§4) JX series polypeptides are approximately 30-mers derived from ENOS and NNOS inhibitory polypeptides. B058 series are shorter (6-mers to 15-mers) peptides derived from flanking loops or from shorter segments of inhibitory polypeptides. CAM binding data represents counts from radiolabeled CAM trapped on a membrane by NNOS adhesion. INOS activity was assayed by measuring oxidation of ferrous myoglobin by product NO.
# NNOS [2] = biological target: T2, NNOS (Rattus norvegicus, UniProt P29476); experiment: Effects on calmodulin binding (Example 3), NNOS
# T2 sequence (P29476 whole entry): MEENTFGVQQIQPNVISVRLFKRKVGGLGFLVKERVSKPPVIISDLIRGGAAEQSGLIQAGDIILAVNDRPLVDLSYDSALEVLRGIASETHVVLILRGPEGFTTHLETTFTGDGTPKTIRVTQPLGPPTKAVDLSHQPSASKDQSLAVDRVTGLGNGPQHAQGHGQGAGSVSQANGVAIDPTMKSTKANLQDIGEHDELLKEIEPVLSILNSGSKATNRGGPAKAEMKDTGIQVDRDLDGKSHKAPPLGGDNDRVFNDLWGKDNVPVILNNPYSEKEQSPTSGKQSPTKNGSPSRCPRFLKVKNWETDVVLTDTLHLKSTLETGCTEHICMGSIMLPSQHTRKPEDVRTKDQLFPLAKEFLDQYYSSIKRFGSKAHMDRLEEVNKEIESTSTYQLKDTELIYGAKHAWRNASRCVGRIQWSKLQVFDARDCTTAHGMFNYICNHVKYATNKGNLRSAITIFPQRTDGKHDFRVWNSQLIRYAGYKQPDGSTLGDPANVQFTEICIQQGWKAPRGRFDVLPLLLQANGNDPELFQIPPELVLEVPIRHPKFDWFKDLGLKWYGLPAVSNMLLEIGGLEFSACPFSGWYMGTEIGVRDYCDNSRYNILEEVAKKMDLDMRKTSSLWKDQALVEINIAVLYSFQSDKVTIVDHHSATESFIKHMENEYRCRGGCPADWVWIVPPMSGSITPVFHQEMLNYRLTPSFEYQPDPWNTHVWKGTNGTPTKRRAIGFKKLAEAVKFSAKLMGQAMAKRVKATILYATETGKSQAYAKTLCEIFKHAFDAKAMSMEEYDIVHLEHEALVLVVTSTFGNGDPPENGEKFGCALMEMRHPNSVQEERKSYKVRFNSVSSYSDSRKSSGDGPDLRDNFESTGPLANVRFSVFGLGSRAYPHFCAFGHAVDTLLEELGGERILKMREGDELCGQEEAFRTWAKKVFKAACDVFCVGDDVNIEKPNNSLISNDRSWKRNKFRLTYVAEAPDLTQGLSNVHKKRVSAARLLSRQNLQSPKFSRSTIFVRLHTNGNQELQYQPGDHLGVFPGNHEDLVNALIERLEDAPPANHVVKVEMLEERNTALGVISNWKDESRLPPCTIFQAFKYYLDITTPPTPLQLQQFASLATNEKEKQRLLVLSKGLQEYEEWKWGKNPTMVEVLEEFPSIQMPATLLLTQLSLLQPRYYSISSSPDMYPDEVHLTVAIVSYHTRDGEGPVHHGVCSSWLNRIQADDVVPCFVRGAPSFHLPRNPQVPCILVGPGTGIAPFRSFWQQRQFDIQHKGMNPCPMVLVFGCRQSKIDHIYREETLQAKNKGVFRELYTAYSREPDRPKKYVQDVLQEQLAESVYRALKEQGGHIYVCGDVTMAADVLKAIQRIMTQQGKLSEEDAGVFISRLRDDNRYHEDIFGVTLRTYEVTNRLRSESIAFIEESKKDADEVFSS
# Description: as §1, §2
# NNOS [3] = biological target: T2, NNOS; experiment: CAM binding: radiolabeled CAM trapped on a membrane by NNOS adhesion; details: no peptide: 774 ± 40
# Experimental: as §4
# NOS [4] = experiment: Radioligand binding of [125I]-calmodulin to NOS; design: scale not given here; details: peptide 100 μg/ml; ligand 1 nM, 15 minutes at 23° C.; mean ± SEM
# Experimental: as §3
# recombinant rat NNOS = biological target: T3, recombinant rat NNOS (Rattus norvegicus, UniProt P29476); experiment: NOS activity, kinetic 96-well microtiter plate assay, NADPH consumption; type: biochemical; details: peptide 100 μg/ml; mean ± SEM, triplicate
# T3 construct: made in house; host or cells: HEK293 cells
# T3 sequence (P29476 whole entry): as above
# Experimental: as §3
# recombinant bovine ENOS = biological target: T4, recombinant bovine ENOS (Bos taurus, UniProt P29473); experiment: as above; type: biochemical; details: peptide 100 μg/ml; mean ± SEM, triplicate
# T4 construct: made in house; host or cells: E. coli
# T4 sequence (P29473 1-1205): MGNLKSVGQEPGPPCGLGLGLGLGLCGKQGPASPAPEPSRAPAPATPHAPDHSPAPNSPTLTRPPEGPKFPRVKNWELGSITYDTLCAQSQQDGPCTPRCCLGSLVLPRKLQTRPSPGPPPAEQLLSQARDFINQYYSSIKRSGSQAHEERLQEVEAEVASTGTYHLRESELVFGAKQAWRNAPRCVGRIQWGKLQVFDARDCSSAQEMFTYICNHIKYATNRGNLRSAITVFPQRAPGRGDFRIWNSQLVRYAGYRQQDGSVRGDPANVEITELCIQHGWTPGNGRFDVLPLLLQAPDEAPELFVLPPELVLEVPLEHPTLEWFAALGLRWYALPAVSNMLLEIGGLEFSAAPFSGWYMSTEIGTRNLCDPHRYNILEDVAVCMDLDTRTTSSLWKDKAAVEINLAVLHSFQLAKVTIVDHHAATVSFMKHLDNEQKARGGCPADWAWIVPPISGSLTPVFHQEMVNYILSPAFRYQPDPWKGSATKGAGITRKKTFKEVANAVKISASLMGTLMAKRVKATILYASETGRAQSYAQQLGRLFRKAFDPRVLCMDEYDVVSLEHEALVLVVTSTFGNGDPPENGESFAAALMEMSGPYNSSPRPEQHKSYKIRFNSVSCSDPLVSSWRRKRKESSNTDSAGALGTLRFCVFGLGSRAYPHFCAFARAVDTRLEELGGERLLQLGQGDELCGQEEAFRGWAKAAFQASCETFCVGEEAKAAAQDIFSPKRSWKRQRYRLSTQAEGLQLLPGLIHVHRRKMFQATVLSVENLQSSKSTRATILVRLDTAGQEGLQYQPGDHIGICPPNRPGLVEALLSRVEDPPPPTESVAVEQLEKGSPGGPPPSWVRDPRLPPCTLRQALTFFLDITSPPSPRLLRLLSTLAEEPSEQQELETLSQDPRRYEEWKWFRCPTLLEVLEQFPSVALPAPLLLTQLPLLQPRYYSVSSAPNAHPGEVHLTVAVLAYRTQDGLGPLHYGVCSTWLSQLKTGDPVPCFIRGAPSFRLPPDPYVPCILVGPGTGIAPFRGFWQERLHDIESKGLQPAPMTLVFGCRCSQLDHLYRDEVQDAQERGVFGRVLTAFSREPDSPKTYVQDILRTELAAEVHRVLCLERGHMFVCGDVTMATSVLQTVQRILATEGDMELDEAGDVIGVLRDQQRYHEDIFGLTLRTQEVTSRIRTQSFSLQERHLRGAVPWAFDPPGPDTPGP
# Experimental: as §3
# [5] = biological target: T5, native INOS (from immunostimulant-activated rat aortic smooth muscle cells) (Rattus norvegicus, UniProt Q06518); experiment: NOS activity, kinetic 96-well microtiter plate assay, Fe2+-myoglobin oxidation; type: biochemical; details: peptide 100 μg/ml; mean ± SEM, triplicate
# T5 construct: endogenous in cells
# Experimental: as §3
sequence,measurement,setting,value
"SSWRRKRKESS [BO58-08, 13; b114 cites it by residues 4-11]",effect on CAM binding to ENOS (in words),ENOS,potent CAM antagonist
same,level at which effects on CAM binding are seen,ENOS; ENOS,10 µM
same,Ligand binding to NOS [3H]-NHA,NOS [1],120.7 ± 12.7
same,INOS Activity 0.1 mg/ml,INOS,14.5 ± .70
same,effect on CAM binding to NNOS (in words),NNOS [2],potent CAM antagonist
same,level at which effects on CAM binding are seen,NNOS [2]; NNOS,10 µM
same,NNOS CAM Binding,NNOS [3],152 ± 26 counts
same,Ligand binding to NOS [125I]-CAM,NOS [4],0.0 ± 0.5
same,NOS Activity (% of control) NNOS,recombinant rat NNOS,19.1 ± 0.9 % of control
same,NOS Activity (% of control) ENOS,recombinant bovine ENOS,27.7 ± 2.0 % of control
same,NOS Activity (% of control) INOS,[5],92.1 ± 1.3 % of control
